The results in this text go back to IntAct's records for PubMed 12445118.

B1: Coronatine-insensitive protein 1 (Arabidopsis thaliana (Mouse-ear cress)), O04197 (parent)
chain: MEDPDIKRCKLSCVATVDDVIEQVMTYITDPKDRDSASLVCRRWFKIDSETREHVTMALCYTATPDRLSRRFPNLRSLKLKGKPRAAMFNLIPENWGGYVTPWVTEISNNLRQLKSVHFRRMIVSDLDLDRLAKARADDLETLKLDKCSGFTTDGLLSIVTHCRKIKTLLMEESSFSEKDGKWLHELAQHNTSLEVLNFYMTEFAKISPKDLETIARNCRSLVSVKVGDFEILELVGFFKAAANLEEFCGGSLNEDIGMPEKYMNLVFPRKLCRLGLSYMGPNEMPILFPFAAQIRKLDLLYALLETEDHCTLIQKCPNLEVLETRNVIGDRGLEVLAQYCKQLKRLRIERGADEQGMEDEEGLVSQRGLIALAQGCQELEYMAVYVSDITNESLESIGTYLKNLCDFRLVLLDREERITDLPLDNGVRSLLIGCKKLRRFAFYLRQGGLTDLGLSYIGQYSPNVRWMLLGYVGESDEGLMEFSRGCPNLQKLEMRGCCFSERAIAAAVTKLPSLRYLWVQGYRASMTGQDLMQMARPYWNIELIPSRRVPEVNQQGEIREMEHPAHILAYYSLAGQRTDCPTTVRVLKEPI
partner: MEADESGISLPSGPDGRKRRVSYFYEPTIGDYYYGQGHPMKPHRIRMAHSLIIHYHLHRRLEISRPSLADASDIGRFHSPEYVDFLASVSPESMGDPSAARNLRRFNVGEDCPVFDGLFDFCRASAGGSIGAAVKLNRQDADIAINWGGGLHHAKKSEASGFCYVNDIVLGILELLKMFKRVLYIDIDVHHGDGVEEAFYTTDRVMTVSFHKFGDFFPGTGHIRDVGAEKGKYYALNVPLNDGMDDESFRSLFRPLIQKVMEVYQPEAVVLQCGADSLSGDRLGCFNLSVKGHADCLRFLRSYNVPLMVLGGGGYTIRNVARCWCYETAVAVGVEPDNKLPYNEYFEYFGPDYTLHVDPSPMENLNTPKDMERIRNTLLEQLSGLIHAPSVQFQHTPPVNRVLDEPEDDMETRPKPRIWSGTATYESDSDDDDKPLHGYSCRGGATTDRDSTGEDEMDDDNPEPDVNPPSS
B2: Coronatine-insensitive protein 1 (Arabidopsis thaliana (Mouse-ear cress)), O04197 (parent)
chain: B1 chain

The variants in the first experiment derive from B1. The following applies: with hda6_arath HDA6, Q9FML2.
With W44A, the “effect of a mutation on the interaction” value is recorded as “decreasing interaction”.

As for L245F, the “effect of a mutation on the interaction” value was “decreasing interaction”.

Variants of B2 are the subject of another experiment. The following applies: with skp1a_arath SKP1A.
For the variant W44A, the “effect of a mutation on the interaction” value is listed as “decreasing interaction”.

The variants in the next experiment derive from B2. The following applies: with skp1b_arath SKP1B.
For W44A, the “effect of a mutation on the interaction” value was “decreasing interaction”.

Variants of B2 are the subject of another experiment. The following applies: with rbs3b_arath RBCS-3B.
For the variant W44A, the “effect of a mutation on the interaction” value was “decreasing interaction”. Consider L245F, for which the “effect of a mutation on the interaction” value is “decreasing interaction”.
